From doi:10.1101/2022.05.28.493848 come the findings set out here.

The assay has as its target Porcine skeletal muscle α-actin, filamentous (porcine) (UniProt P68137).

In turn, “MyoB-MLC-B CaMLD complex, purified (from UniProt Q8I465 1-801; Q8III1 1-652)” gave a coupling efficiency (kcat/Kapp) of the actin-activated ATPase of 9.
